The series in a line: soluble on expression in E. coli; label from the status in PepcDB or PDB records.
Take “MKIIIIGGVAGGATTAARIRRTNEAAEIILLEKGKYISYANCGLPYYIGGVIKEREKLFVQTPEAFSTRFRVDVRTENEVIFIDRKRKTVTVRQSSGDTYEESYDKLLISTGASPVRPPLPGIDLNGIFTLRNVADTDRIKEYINSHAPRKAVVIGAGFIGLEMAENLHAQGAKVSIVEMGNQVMAPIDFSMASLVHQHLMDKGVNLYLEQAVASFERDGKGLKVIFKNGQSISADIVILSIGVRPETTLARAAELKIGEAGGIAVNDYLQTSDESIYAIGDAIEFRHPITGKPWLNYLAGPANRQGRIVADNIQGAHIPYEGAIGTSIAKVFDMTVASTGLPGKRLRQAEINYMSSTIHPSSHAGYYPDAMPMSIKITFDPKTGKLYGGQIVGYDGVDKRIDEIALVIKHEGTIYDLMKVEQAYAPPFSSAKDPVAVAGYVAENIITGKVQPVYWRQLRDIEMENNFLLDVRTPDEFSLNTLPGAVNIPLDELRDRLDELPKDKMIYTFCAVGLRGYLAYRILVQHGFEKVRNLSGGLKTYHAAAAPIILREESENEVPAQPNANIQQPADAQPQKTVSPVEAVKTIRVDACGLQCPGPILKMKKTMDSLVSGDRVEITSTDPGFPRDAAAWCNSTGNQLISKETAGGKSVVVIEKGEPKSCNIVTSCEGKGKTFIMFSDDLDKALATFVLANGAAATGQKVTIFFTFWGLNVIKKLHKPNVEKDIFGKMFGMMLPSSSRKLKLSKMSMGGIGGKMMRYIMNRKGIDSLESLRQQALENGVEFIACQMSMDVMGVKQEELLDEVTIGGVATYMERADNANINLFILEHHHHHH”: the “soluble on expression in E. coli” value was “not soluble”.

Regarding “MTVDDIMVPRSEIIGIDINDDWKSILRQLSHSPHGRIVLYRDSLDDAISMLRVREAWRLMSEKKEFTKETMLRAADEIYFVPEGTPLSTQLVKFQRNKKKVGLVVNEYGDIQGLVTVEDILEEIVGDFTTSMSPTLAEEVTPQNDGSVIIDGTANVREINKAFNWHLPEDDARTVNGVILEALEEIPVAGTRVRIGKYDIDILDVQDNMIKQVKVFPVKPLRESVAE”, the “soluble on expression in E. coli” value was “not soluble”.

Regarding “GPGSDVFFSGYLNKLKGGDNHSWKKRYLQVQKGHFIMSDKESDTEGKALSLEHIQSVCPVPVSTAKREHVFALHTTSGKSMWFEAASLENMEEWIHAIQCGLGVA”, the “soluble on expression in E. coli” value was “soluble”.

Regarding “SLPIFEARVKVGISSSWVTSRKVSWRDAIAQIESDRIVVKYLKMGEVVGEDSFPFSALIDLGVRIPDELKLNPEKDHFGIKFYIPGRGELLVIFTIEENLLIYDEKKFSEFVHKVFEVLINGKTVMLQLARIIGGAVNMESKWEEGWLRVIKVKSARTQKTERSIVVIIKDKRPVSIFSDLEDIEIEEVDMNGKRVRAWKIRHFHIDQSVTSYLYIPDKQTQLYVLRYLLKYNPAIMEFIMKVSDDFPTLKSEFQEIMEKEIKELEALDEMEKQILVALYSGINPLELHQFLGVSEKEIEEIYDRMIDKGLLKIVMIRKIVDLTNEGRKIVNKLLKYGLVSM”, the “soluble on expression in E. coli” value is on record as “soluble”.

Consider “MSTYDTAVLDDTLVSCLSQLIGAEHIDTLTLEGRFEITRIAAALSGRPGPAPRAILMSGLQGSGKTTLARALEAAGFRRLCPDEEMFRRYGHYGRDFPRGEFRVREAPVLKDIALELQELLTAGHEVVVDHGFWTREERAQWAMTVMEAGGKPVLIYLPVPHEVRWDRIRKRNEQSLVDANSIEFSEEDLLRHAGRFSPPTDDEPHIVYDGQPDSVLADIQLSRHFDALEHHHHHH”, for which the “soluble on expression in E. coli” value is listed as “not soluble”.

Turning to “ATRDFLQRAEAAYKTDGGAAGLGQKAFVKMMQEVCELPSMVAYSLFKRLTGCEAGEEEGAAVPRDTFIKFWTGRGLVTAPPPKRAFDSLRPDGQDYLTFADFWPMMECVLRYHPGLEFLAETQEFQRKYAETVIHRIFYSLNKCGSGRLTFREFRSGELMDALYALDRENDINKILKFFSYEHFYVIYCKFWELDQDHDFQLDKTDLAHYSNCALSYVIVDRIFEEAPRKFKAGTPPGKMCYEDFVWFILSEEDKTTDTALTYWFRCVDLDGDGVIRPREMLYFYEEQLRRLEGWNQEPVQFEDLLCQLHDMLSPAKEGAFTLRDLKRTKPQSGLFFSSLFSLHKFVGFENRDPFAQRAEAAEFTGLSDWDKFAKIEYFRLASEDD”, the “soluble on expression in E. coli” value is on record as “soluble”.

As for “MAHHHHHHMSPVIALHEDLQKRLEEYRSTRGFSPVKWIEQKCAALNEYMASHGLKVCVTSVSGGIDSAVVLALCSRAMRMPNSPIVRNVGICQPICSSAWALARGRENIQSCGALEVIVDQTELYKQLSRIVETAVGIDGQNFARGQLRSYMRTPVAYYVAQLYSQEGNAAIVMGTGNMDEDGYLAYFCKAGDGVVDVQLISDLHKSEVFRVARELGVPANTLQASPSADLWEGQTDEEELGFPYDFVELYTGWCLQLSDEERQSFLHSLSSDARQQYEKYKDACENTHRRNAHKLRGPINL”, the “soluble on expression in E. coli” value is “soluble”.

As for “GGGGGGMLNRVFLEGEIESSCWSVKKTGFLVTIKQMRFFGERLFTDYYVIYANGQLAYELEKHTKKYKTISIEGILRTYLERKSEIWKTTIEIVKIFNPKNEIVIDYKEI”, the “soluble on expression in E. coli” value is on record as “soluble”.

In the case of “MSLTDVLTATYELYLAEGESPEGKARGIALEQTVEMPADCLPGDIAERMVGRIRTLEPRADHWVLEIDYPLAAIGGELTQCLNLLFGNISLQSGIRLVQVAWPPSLLRRWGGPGLGVSGLRARLDVGARPLLCAALKPMGLSAPALAARCAAFARGGVDLIKDDHGLADQPDAPFAERLNACQDAVRQANRRSGGRSLYLPNVTAAPQALGERLAAARDAGCEMVLISPWLTGLETLRWARDEYGLALMAHPAMTGGLFLPRHGISPALLLGELFRIAGADAVIYPNVGGRFRFSADTCQAINHALRRPLEGLASAWPTPGGGVDVKRAGHWKQAYGPDTILLIGGSLYAQGDIEAASRALMQAIRDEGHHHHHH”, the “soluble on expression in E. coli” value is on record as “soluble”.

Turning to “MKHESTKIPLVIFMHIPKTGGITLRNILDQQYRSEHILRLPQKNKLDNLLQKKGANIKKLQCVYGHHRFGVHEYFQQPFTYITMLRHPVERIISTYYFILQNERNRMHQKVKPLTFEQFVQSTDPDLQVPLTNHQTRYLSGERKPNLNKALQHMDTHFSVVGITELYNESLFIMKKKLGWDHISYQKKNVTKKRKRQTDIGLDTIEIIKRKNPLDLHLYETAKEKLQEHIKRLDSGARKELQQFLQDQNGFGPHGMAGDPLEHHHHHH”, the “soluble on expression in E. coli” value is “soluble”.

As to “MAEEGYKVVLNVYDLSNGLARQLSTSFLGKPIEAIWHTGVVVYGNEYFFGGGIQSLAAGRTPYGRPVRVVEMGETHIPREVFEDYLRDISPRYTAETYRLLSHNCNNFSNEVAQFLVGAGIPDYILNLPAEVMSSPMGPLIMPMIQNLESTLRTNAAPQATQFVPSSVPPPPPPQNKPGEGSSSSKQEDKAAKAKQGSAADPLGGARGKVQEEVMREFAAIMASGTLRASEAAALAMRRVMERHGNATMQQS”, the “soluble on expression in E. coli” value is reported as “soluble”.

As for “GSMSLPPIRLPSPYGSDRLVQLAARLRPALCDTLITVGSQEFPAHSLVLAGVSQQLGRRGQWALGEGISPSTFAQLLNFVYGESVELQPGELRPLQEAARALGVQSLEEACWRARGDRA”, the “soluble on expression in E. coli” value was “soluble”.

On to “MQDEVVLLDFWPSPFGMRVRIALAEKGIKYEYKEEDLRNKSPLLLQMNPVHKKIPVLIHNGKPICESLIAVQYIEEVWNDRNPLLPSDPYQRAQTRFWADYVDKKIYDLGRKIWTSKGEEKEAAKKEFIEALKLLEEQLGDKTYFGGDNLGFVDIALVPFYTWFKAYETFGTLNIESECPKFIAWAKRCLQKESVAKSLPDQQKVYEFIMDLRKKLGIE”, for which the “soluble on expression in E. coli” value is “soluble”.

For the sequence “MVVAKPTAAVSIEDLIKKHSDVDPFLVKKWERIFSLFFDRNASHQVDWGDFYLVVKKVRDIYGAESVQTGFAKKSLAALWEGLCSIADADKDQLISIDEWIGLLKKTDAKTEPKWFKDYQNFMFKLFDVSCDGVMDLAEYTDGMSTYGFDQSECDAAFHKFSVDKKGQYVPQMKPETWNTYFHQLFYSTNKSDVGNHLFGIIDF”, the “soluble on expression in E. coli” value is listed as “not soluble”.

Consider “MRILILGMGGTIASVKGERGYESALSVSKILKLAGISSEAKIEARDLMNVDSTLIQPSDWERLAKEIEKEVWEYDGIVITHGTDTMAYSASMLSFMLRNPPIPIVLTGSMLPITEKNSDAPFNLRTALEFVKLGIRGIYIAFNGKVMLGVRASKIRSMGFDAFESINYPNVAEIKDDKLRILHIPDFYGDEFFSDIKYEPKVLVIKLIPGLSGDIVREALRLGYKGIILEGYGVGGIPYRGTDLFEVVSSISKRIPVVLTTQAIYDGVDLQRYKVGRIALEAGVIPAGDMTKEATITKLMWILGHTKNIEEVKQLMGKNITGELTRVS”, for which the “soluble on expression in E. coli” value was “soluble”.

Values taken from the DeepSol protein solubility set.
